Values quoted from earlier work, collected in patent publication US9265777B2, “Antiparasitic agent for fish and method of controlling proliferation of fish parasites” (NIPPON SUISAN KAISHA, LTD., priority 2009, dated 2016).

Test system: White spot disease
Settings: 40 mg per 1 kg of fish body weight orally per day, 28-day experimental period

B1: lactoferrin: marketed as an additive for fisheries (protein, UniProt P24627 20-708, looked up)
Lactotransferrin: APRKNVRWCTISQPEWFKCRRWQWRMKKLGAPSITCVRRAFALECIRAIAEKKADAVTLDGGMVFEAGRDPYKLRPVAAEIYGTKESPQTHYYAVAVVKKGSNFQLDQLQGRKSCHTGLGRSAGWIIPMGILRPYLSWTESLEPLQGAVAKFFSASCVPCIDRQAYPNLCQLCKGEGENQCACSSREPYFGYSGAFKCLQDGAGDVAFVKETTVFENLPEKADRDQYELLCLNNSRAPVDAFKECHLAQVPSHAVVARSVDGKEDLIWKLLSKAQEKFGKNKSRSFQLFGSPPGQRDLLFKDSALGFLRIPSKVDSALYLGSRYLTTLKNLRETAEEVKARYTRVVWCAVGPEEQKKCQQWSQQSGQNVTCATASTTDDCIVLVLKGEADALNLDGGYIYTAGKCGLVPVLAENRKSSKHSSLDCVLRPTEGYLAVAVVKKANEGLTWNSLKDKKSCHTAVDRTAGWNIPMGLIVNQTGSCAFDEFFSQSCAPGADPKSRLCALCAGDDQGLDKCVPNSKEKYYGYTGAFRCLAEDVGDVAFVKNDTVWENTNGESTADWAKNLNREDFRLLCLDGTRKPVTEAQSCHLAVAPNHAVVSRSDRAAHVKQVLLHQQALFGKNGKNCPDKFCLFKSETKNLLFNDNTECLAKLGGRPTYEEYLGTEYVTAIANLKKCSTSPLLEACAFLTR
- infection during experimental period: no infection was observed
